# Test results taken from US20210221899A1 (published 2021).
# Substitutions are numbered along the chain they refer to.
# T1: canine NGF (canine, UniProt Q29074 110-229 (pig entry), limits assumed)
# T1 construct: The protein was secreted from CHO cells and purified; also called cNGF; canine β-NGF
# T1 chain: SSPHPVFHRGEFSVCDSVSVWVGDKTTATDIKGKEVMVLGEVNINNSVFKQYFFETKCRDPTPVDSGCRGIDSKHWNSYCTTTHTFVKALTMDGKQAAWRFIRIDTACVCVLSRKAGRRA
# T2: human NGF (human, UniProt P01138 122-241)
# T2 construct: also called human Nerve Growth Factor; hN
# T2 chain: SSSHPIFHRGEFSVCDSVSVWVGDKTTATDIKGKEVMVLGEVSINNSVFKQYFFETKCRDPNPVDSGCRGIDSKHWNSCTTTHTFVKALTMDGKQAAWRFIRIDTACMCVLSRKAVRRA
# B1: can9L12VH_V108A (antibody, V domains shown)
# VH: EVQLVESGGDLVKPGGSLRLSCVASGFTFSSHGMHWVRQSPGKGLQWVAVINSGGSSTYYTDAVKGRFTISRDNAKNTVYLQMNSLRAEDTAMYYCAKESVGGWEQLAGPHFDYWGQGTLVIVSS
# VL: QSVLTQPTSVSGSLGQRVTISCSGSTNNIGILGASWYQLFPGKAPKLLVYGNGNRPSGVPDRFSGADSGDSVTLTITGLQAEDEADYYCQSFDTTLGAHVFGGGTHLTVL
# B2: can9L12VL_G53A (antibody, V domains shown)
# VH: B1 VH with A108V
# VL: B1 VL with G53A
# B3: can9L12VL_N28A (antibody, V domains shown)
# VH: B1 VH with A108V
# VL: B1 VL with N28A
# B4: can9L12VL_L96A (antibody, V domains shown)
# VH: B1 VH with A108V
# VL: B1 VL with L96A
# B5: can9L12VH_W104A (antibody, V domains shown)
# VH: B1 VH with W104A, A108V
# VL: B1 VL
# B6: can9L12VL_N52A (antibody, V domains shown)
# VH: B1 VH with A108V
# VL: B1 VL with N52A
# B7: can9L12VL_G33A (antibody, V domains shown)
# VH: B1 VH with A108V
# VL: B1 VL with G33A
# B8: can9L12VL_D93A (antibody, V domains shown)
# VH: B1 VH with A108V
# VL: B1 VL with D93A
# B9: can9L12VL_L32A (antibody, V domains shown)
# VH: B1 VH with A108V
# VL: B1 VL with L32A
# B10: can9L12VL_I29A (antibody, V domains shown)
# VH: B1 VH with A108V
# VL: B1 VL with I29A
# B11: can9L12VH_Y114A (antibody, V domains shown)
# VH: B1 VH with A108V, Y114A
# VL: B1 VL
# B12: can9L12VL_S91A (antibody, V domains shown)
# VH: B1 VH with A108V
# VL: B1 VL with S91A
# B13: can9L12VL_F92A (antibody, V domains shown)
# VH: B1 VH with A108V
# VL: B1 VL with F92A
# B14: can9L12VL_I31A (antibody, V domains shown)
# VH: B1 VH with A108V
# VL: B1 VL with I31A
# B15: can9L12VL_T94A (antibody, V domains shown)
# VH: B1 VH with A108V
# VL: B1 VL with T94A
# B16: can9L12VL_O90A (antibody, V domains shown)
# VH: B1 VH with A108V
# VL: B1 VL with Q90A
# B17: can9L12VL_V100A (antibody, V domains shown)
# VH: B1 VH with A108V
# VL: B1 VL with V100A
# B18: can9L12VL_H99A (antibody, V domains shown)
# VH: B1 VH with A108V
# VL: B1 VL with H99A
# B19: can9L12VL_T26A (antibody, V domains shown)
# VH: B1 VH with A108V
# VL: B1 VL with T26A
# B20: can9L12VL_G97A (antibody, V domains shown)
# VH: B1 VH with A108V
# VL: B1 VL with G97A
# B21: can9L12VL_G30A (antibody, V domains shown)
# VH: B1 VH with A108V
# VL: B1 VL with G30A
# B22: can9L12VL_G51A (antibody, V domains shown)
# VH: B1 VH with A108V
# VL: B1 VL with G51A
# B23: can9L12VL_T95A (antibody, V domains shown)
# VH: B1 VH with A108V
# VL: B1 VL with T95A
# B24: can9L12VL_N27A (antibody, V domains shown)
# VH: B1 VH with A108V
# VL: B1 VL with N27A
# Experiments:
# Assay in all cases: SPR (Biacore T200), 100 nM mAb on NGF chip, similarity to parent mAb
# [1] = biological target: T1, canine NGF
# Text: (§1) The region of an antibody responsible for antigen recognition represents the paratope. A paratope is created by a combination of amino acids in the complementarity determining regions (CDRs) of both the heavy and light chain variable regions. The binding between antibody and antigen is often mediated by side chains of CDR residues with side chains or carbohydrate moieties of the antigen. To help define critical side chains involved in antibody recognition alanine scanning mutagenesis was performed on each CDR residue in both the heavy and light chain, the technique as described by Cunningham and Wells (1989) Science, Vol. 244, Issue 4908, pp. 1081-1085. These mutants were then individually tested for the ability to NGF using the Biacore. […] Values were then compared to the wild type antibodies and are represented in the tables as a percent of wild type binding. The data presented in Tables 4 and 5 below are shown as a “percent similarity score” compared to wild type.
# (§2) The mean response unit of four replicates of the parent mAb+/−3 standard deviations was used to generate parameters to define a threshold of response units comprising both the on- and off-rates antibody binding. The percentage of data points for each mutant fell within this threshold was then used to define a “% similarity score”. […] Results from substitution of alanine at each CDR position
# [2] = biological target: T3, rat NGF (rat, UniProt P25427 122-241)
# T3 construct: also called rN
# T3 sequence (P25427 122-241 limits assumed): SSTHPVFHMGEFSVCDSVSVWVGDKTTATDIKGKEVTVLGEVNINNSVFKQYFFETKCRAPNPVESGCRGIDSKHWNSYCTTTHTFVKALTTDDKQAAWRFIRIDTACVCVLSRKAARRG
# Text: as §1, §2
# [3] = biological target: T2, human NGF
# Text: as §1, §2
Binder,Percent Similarity Score (KD on cN) [1] [%],Percent Similarity Score (KD on rN) [2] [%],Percent Similarity Score (KD on hN) [3] [%]
B1,93.2,62,56.3
B2,34.2,11.7,10
B3,6.6,2.5,2.1
B4,97,37,34.2
B5,19.2,8.2,5.2
B6,100,100,100
B7,7.5,2.9,2.3
B8,11,3.7,3.3
B9,4.4,1.7,1.5
B10,4.4,1.6,1.5
B11,100,99.2,99.9
B12,39.3,14.5,11.6
B13,7.2,2.3,2.7
B14,41.2,12.6,11.4
B15,100,40,52.5
B16,79.2,24.2,19.3
B17,58.2,20.2,15.7
B18,100,43.7,56.9
B19,100,99.2,100
B20,98.9,35.9,43.3
B21,53.9,13.8,16.2
B22,100,99.9,100
B23,100,99.9,100
B24,100,99.9,100
